Values belong to the binder of their own block, whether it stands above or below them.
Columns and labels:
human PD-L1 = target: T1, human PD-L1 (human, UniProt Q9NZQ7 19-238, limits assumed); assay: SPR (format not described)
T1 construct: also called CD274; B7-H1

cynomolgus monkey PD-L1 = target: T2, cynomolgus monkey PD-L1 (cynomolgus monkey, UniProt G7PSE7 19-238); assay: SPR (format not described)
T2 construct: PD-L1 is implied
T2 sequence (G7PSE7 entry or part of it): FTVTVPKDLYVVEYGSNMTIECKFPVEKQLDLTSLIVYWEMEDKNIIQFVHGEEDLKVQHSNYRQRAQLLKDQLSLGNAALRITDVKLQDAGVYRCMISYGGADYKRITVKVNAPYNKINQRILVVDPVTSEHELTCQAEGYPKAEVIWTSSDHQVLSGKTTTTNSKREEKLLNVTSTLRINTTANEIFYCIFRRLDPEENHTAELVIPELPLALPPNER

T1 sequence (Q9NZQ7 19-238 limits assumed): as the sequence (G7PSE7 entry or part of it) above, with T33A, S34A, N62S, Q68R, R82Q, L173F, A185T, I192T, L215H counted along it

- Kd (human PD-L1): 0.349 nM
B1: hABM101.11 (IgG4) (antibody, V domains shown)
VH: QVQLVQSGPEVKKPGASVKVSCKASGYTFTENSMHWVRQSHGKSLEWMGGINPNNGGTSYNQKFKGKVTMTTDKSTSTAYMELRSLTSDDTAVYYCARPYYYGYREDYFDYWGQGTTLTVSS
VL: EIVMTQSPGTLSLSPGERATLSCRASSSVSYMYWYQQKPGQAPRPLIYLTSNLASGIPDRFSGSGSGTDYTLTISRLEPEDFAVYYCQQWSSYPPTFGQGTKVEIKR

- Kd (cynomolgus monkey PD-L1): 0.579 nM
- Kd (human PD-L1): 0.374 nM
B2: hABM101.11 (IgG1) (antibody, V domains shown)
VH: B1 VH
VL: B1 VL
